# Target: viral gp41 (HIV-1 transmembrane protein) of HIV-1IIIB (HIV-1IIIB) (UniProt P04578)
# Assay: cell-based or functional assay
Substance,Cell fusion (IC90),HIV infectivity (IC90)
"DP107 (SEQ ID NO:25), synthetic peptide corresponding to amino acids 558 to 595 of HIV-1LAI gp41",1000 nM,1000 nM
"DP178 (SEQ ID NO:1), synthetic peptide corresponding to amino acids 638 to 673 of HIV-1LAI gp41",1 nM,80 nM
"M41 (maltose binding protein fused to the extracellular domain of HIV-1 gp41, residues 540-686) (from UniProt P0AEX9 27-392; P03377 540-686)",> 50000 nM,> 16000 nM
M41-P (M41 with an Ile to Pro mutation at position 578) (from UniProt P0AEX9 27-392; P03377 540-686),83 nM,66 nM

# From patent US6951717
